Experimental data from paper PMC6484134 (The Journal of Biological Chemistry, 2019).

Columns and labels:
[1] = target: T1, Cul3N (human Cul3 N-terminal domain, residues 1–388, I342R L346D) (human, UniProt Q13618 1-388, I342R | L346D); assay: ITC; 25 °C; 20 mM HEPES, 200 mM NaCl, 1 mM DTT; […] (70–[…]) […]; settings: both partners purified
T1 construct: also called Cul3–NTD

[2] = target: T2, Cul3NΔ22 (human Cul3 N-terminal domain, residues 23–388, I342R L346D) (human, UniProt Q13618 23-388, I342R | L346D); assay: as above; settings: both partners purified
T2 construct: also called Cul3–NTD; Cu3NΔ22

[3] = target: the molecule itself; assay: […]; room temperature; […]; 20 mM HEPES, 150 mM NaCl, 2 mM DTT; […]

T1 sequence (Q13618 1-388 I342R/L346D): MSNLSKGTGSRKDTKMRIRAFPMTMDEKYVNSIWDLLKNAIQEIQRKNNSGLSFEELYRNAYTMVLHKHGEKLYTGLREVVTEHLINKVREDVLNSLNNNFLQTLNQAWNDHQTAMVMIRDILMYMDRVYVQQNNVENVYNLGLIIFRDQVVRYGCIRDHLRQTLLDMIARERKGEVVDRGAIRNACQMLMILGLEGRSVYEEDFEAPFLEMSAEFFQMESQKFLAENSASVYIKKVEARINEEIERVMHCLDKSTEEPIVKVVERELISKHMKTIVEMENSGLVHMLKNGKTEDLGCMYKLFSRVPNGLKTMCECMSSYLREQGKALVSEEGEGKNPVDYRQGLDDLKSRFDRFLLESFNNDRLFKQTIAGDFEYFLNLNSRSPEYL
T2 sequence (Q13618 23-388 I342R/L346D): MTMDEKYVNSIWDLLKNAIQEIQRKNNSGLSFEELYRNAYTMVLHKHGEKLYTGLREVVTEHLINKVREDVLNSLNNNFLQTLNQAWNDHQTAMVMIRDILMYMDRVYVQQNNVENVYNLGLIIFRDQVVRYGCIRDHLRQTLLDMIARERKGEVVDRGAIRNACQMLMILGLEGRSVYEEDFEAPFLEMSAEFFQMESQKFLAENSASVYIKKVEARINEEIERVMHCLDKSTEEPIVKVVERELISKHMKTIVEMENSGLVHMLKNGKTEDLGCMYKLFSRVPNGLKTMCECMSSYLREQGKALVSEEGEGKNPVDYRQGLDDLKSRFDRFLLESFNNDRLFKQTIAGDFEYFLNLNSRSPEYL

B1: A55BB (A55 BTB-BACK domain, residues 1–250), wild type (domain or fragment)
chain: MNNSSELIAVINGFRNSGRFCDISIVINDERINAHKLILSGASEYFSILFSNNFIDSNEYEVNLSHLDYQSVNDLIDYIYGIPLSLTNDNVKYILSTADFLQIGSAITECENYILKNLCSKNCIDFYIYADKYNNKKIESASFNTILQNILRLINDENFKYLTEESMIKILSDDMLNIKNEDFAPLILIKWLESTQQSCTVELLRCLRISLLSPQVIKSLYSHQLVSSIYECITFLNNIAFLDESFPRYH
In the case of B1, the Kd [1] is reported as less than 1 nM, the dH [1] is reported as -17.7 kcal/mol and the Kd [2] is reported as 5.3 nM. For the same binder, the dH [2] was -9.9 kcal/mol and the “stoichiometry N” value [3] was 2.
